# Reference: the supplement of paper PMC11780869
# Test system: Bacillus subtilis
# Assay: cleaved RNA product abundance (RNA/gDNA barcode ratio) relative to median wild-type variant (ratio to wild type); higher = more accumulation of the downstream cleavage product
# In short: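 Oligos with a 9% error rate were used to build barcoded, mutagenized RNase Y cleavage-site windows within truncated aprE or tetM reporter mRNAs, which were integrated into the B. subtilis chromosome. Cultures were grown in LB at 37°C between OD600 0.0003 and 0.3. Cleaved RNA was gel-selected, reverse transcribed and barcode-sequenced, as were genomic DNA barcodes, and UMIs were collapsed. Cleaved product abundance is the scaled RNA:gDNA barcode ratio, with the median construct carrying the unmutated site as reference.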
# [1] = experiment (reporter, strain, medium): exp 8a: truncated aprE reporter, strain BJT201 with 2% xylose (RNase J1 expressed), cleavage site: glnRA (positions -5 to +31 mutated)
# [2] = experiment (reporter, strain, medium): exp 4a: truncated aprE reporter, strain BJT201 with 2% xylose (RNase J1 expressed), cleavage site: cggR-gapA (positions -7 to +36 mutated)
# [3] = experiment (reporter, strain, medium): exp 2b: truncated aprE reporter, strain BJT200, cleavage site: cggR-gapA (positions -7 to +36 mutated)
Sequence,cleaved RNA product abundance [2],cleaved RNA product abundance [3],also measured
CGACATGTCCCGCTTCTTTCATTAATCCGTTAGAAACTGTTTTGCTGTATACATTTACCTTTTAAGAGGAGGAAT,,,cleaved RNA product abundance [1]: 0.085
ACAGACGAAGGAGCCGCAAAGAAGTTATTAAGGGATGAATAATCCCTCTCTATAAATATCTCTCACTTATTTAAA,0.372,,
ACAGACGAAGGAGCCGCAAAGAATTTATTAAGGGATGTATAATCCCTCAATATAAATATCTCTCACTTATTTAAA,0.683,,
ACAGACGAAGGAGCCGCAAAGAAGTTTTTAAGGGATGAATAATCCCTAAATATAAATATCTCTCACTTATTTAAA,,0.364,
ACAGACGAAGGAGCCGCAAAGAAATTATTAAGGGATGAATAATCCCTCCATATAAATATCTCTCACTTATTTAAA,0.338,,
ACAGACGAAGGAGCCGCAAAGAAGTTATTAAGGGAAGAATAATCCCTCAATATAAATTTCTCTCACTTATTTAAA,,0.471,
ACAGACGAAGGAGCCGCAAAGAAGATATCAAGGGATGAATAATCCCTCAATATAAATATCTCTCACTTATTTAAA,0.522,,
CGACATGTCCCGCTTCTTTCATTAATCCGTTGGCAACTGATTTGCTATATACATTTACCTTTTAAGAGGAGGAAT,,,cleaved RNA product abundance [1]: 0.729
ACAGACGAAGGAGCCGCTAAGAAGTTATTAAGGGATGAATAATCACTCAATATAAATATCTCTCACTTATTTAAA,0.129,,
ACAGACGAAGGAGCCGCAAAGAAGTTATAAAGGGATAAATAATCCCTCAATATAAATATCTCTCACTTATTTAAA,0.358,0.316,
ACAGACGAAGGAGCCGCAAAGAAGTTATTAAGGGATGAAAAATCCCTCAATATGAATATCTCTCACTTATTTAAA,0.151,,
CGACATGTCCCGCTTCTTTCATTAATCCGTTAACAACTGTTTTGCTATATACATTTAGCTTTTAAGAGGAGGAAT,,,cleaved RNA product abundance [1]: 0.204
CGACATGTCCCGCTTCTTTCATTAATACGTTATCAACTGTTTTGCTATATACATTTACCTTTTAAGAGGAGGAAT,,,cleaved RNA product abundance [1]: 0.281
ACAGACGAAGGAGCCGCAAAGAAGTTACTAAGGGATGAATAATCTCTCAATATAAATATCTCTCACTTATTTAAA,0.22,0.149,
ACAGACGAAGGAGCCGCAAAGAAGTTTTTAAGGGATGAGTAATCCCTCAATATAAATATCTCTCACTTATTTAAA,0.235,,
CGACATGTCCCGCTTCTTTCATTAATCCGTTAGCAACTGTTTTGGTATATATATTTACCTTTTAAGAGGAGGAAT,,,cleaved RNA product abundance [1]: 0.224
CGACATGTCCCGCTTCTTTCATTAATCCGTTATCAACTGTTTTGCTATATTCATTTACCTTTTAAGAGGAGGAAT,,,cleaved RNA product abundance [1]: 0.246
ACAGACGAAGGAGCCGCAAAGAAGTTATTAAGGGATTAATAATCCCTCACTATAAATATCTCTCACTTATTTAAA,0.26,0.233,
ACAGACGAAGGAGCCGCAACGAAGTTATTAAGGGATGAATAAACCCTCAATATAAATATCTCTCACTTATTTAAA,0.538,,
CGACATGTCCCGCTTCTTTCATTAATCCGATAGCAACTTTTTTGCTATATACATTTACCTTTTAAGAGGAGGAAT,,,cleaved RNA product abundance [1]: 1.24
ACAGACGAAGGAGCCGCAAAGAAGTTATTAAGGGATAAATAATCCCTCAATATAAATTTCTCTCACTTATTTAAA,0.368,,
ACAGACGAAGGAGCCGCAAAGAAGTTATTAAGGCATGAATAAACCCTCAATATAAATATCTCTCACTTATTTAAA,0.136,,
ACAGACGAAGGAGCCGCAAAAAAGTTATTAAGAGATGAATAATCCCTCAATATAAATATCTCTCACTTATTTAAA,0.133,0.126,"cleaved RNA product abundance (experiment (reporter, strain, medium): exp 6: tetM reporter, strain 168, cleavage site: cggR-gapA (positions -7 to +36 mutated)): 0.0928"
ACAGACGAAGGAGCCGCAAAGGAGTTATTAAGAGATGAATAATCCCTCAATATAAATATCTCTCACTTATTTAAA,0.199,,
ACAGACGAAGGAGCCGCAAAGAAGTTATTAAGGGATGAATACTCCCTCTATATAAATATCTCTCACTTATTTAAA,0.259,0.275,
ACAGACGAAGGAGCCGCAAAGAAGTTATTAAGGGATGATTAATCACTCAATATAAATATCTCTCACTTATTTAAA,,0.152,
ACAGACGAAGGAGCCGCAAATAAGTTAATAAGGGATGAATAATCCCCCAATATAAATATCTCTCACTTATTTAAA,,0.208,
ACAGACGAAGGAGCCGCAAAGCAGTTATTAAGGGATGAATAATCCCTCAATATATATATCTCTCACTTATTTAAA,0.687,,

Sequence,cleaved RNA product abundance [2],cleaved RNA product abundance [3],also measured
ACAGACGAAGGAGCCGCAAAGAAGTTAATAAGGGATGACTAATCCCTCAATATAAATATCTCTCACTTATTTAAA,0.308,,
CGACATGTCCCGCTTCTTTCATTAATGCGTTAGCAACTGTGTTGCTATATACATTTACCTTTTAAGAGGAGGAAT,,,cleaved RNA product abundance [1]: 0.406
ACAGACGAAGGAGCCGCAAAGAAGTGATTAAGGGATGAATAATCCCTCAATATAAATAACTCTCACTTATTTAAA,0.522,,
CGACATGTCCCGCTTCTTTCATTAATCCGTTAGCAACTGTTTTGCTATATACATTGACCATTTAAGAGGAGGAAT,,,cleaved RNA product abundance [1]: 0.525
ACAGACGAAGGAGCCGCAAAGAAGTTATTAAGGGATGAATAATTTCTCAATATAAATATCTCTCACTTATTTAAA,0.16,,
ACAGACGAAGGAGCCGCAAAAAAGTTAATAAGGGATGAATAATCCCTCAATATAAATATCTCTCACTTATTTAAA,0.365,0.335,
ACAGACGAAGGAGCCGCCAAGAAGTTATTAAGGGATGAATAAACCCTCAATATAAATATCTCTCACTTATTTAAA,0.471,,
ACAGACGAAGGAGCCGCAAAGAACTTATTATGGGATGAATAATCCCTCAATATAAATATCTCTCACTTATTTAAA,0.233,,
ACAGACGAAGGAGCCGCAAAGAAGTTATTAAGGCATGAATAATCCCTCAATACAAATATCTCTCACTTATTTAAA,0.058,,
ACAGACGAAGGAGCCGCAAAGAAGTTAATAAGGGATGAAAAATCCCTCAATATAAATATCTCTCACTTATTTAAA,0.293,,
CGACATGTCCCGCTTCTTTCATTAATCCGTTAGCAACTGTTTTGCTATACACATTTACCTTTTAAGAGGAGGAAT,,,cleaved RNA product abundance [1]: 0.459
CGACATGTCCCGCTTCTTTCATTAATCCGTTAGCAACTGTTTTGCTATATACATTAACTTTTTAAGAGGAGGAAT,,,cleaved RNA product abundance [1]: 1.71
CGACATGTCCCGCTTCTTTCATTAATCCGTTTGCAACTGTTTTGCTATCTACATTTACCTTTTAAGAGGAGGAAT,,,cleaved RNA product abundance [1]: 0.203
ACAGACGAAGGAGCCGCAAATAAGTTATTAAGGGATGAATAATCCATCAATATAAATATCTCTCACTTATTTAAA,0.261,0.172,
ACAGACGAAGGAGCCGCAAAGAAGTTATTAAGGAATTAATAATCCCTCAATATAAATATCTCTCACTTATTTAAA,0.137,0.103,
ACAGACGAAGGAGCCGCAAAGAAGTTATTAAGGAATGAATAATCCCTCAATCTAAATATCTCTCACTTATTTAAA,0.0695,,
ACAGACGAAGGAGCCGCTAAGAAGTTATTAAGGGATGAATAATCCCTCTATATAAATATCTCTCACTTATTTAAA,0.509,,
ACAGACGAAGGAGCCGCAAAGAAGTTATTAAGGGATGAATAATCCGTCAATATAGATATCTCTCACTTATTTAAA,0.314,,
ACAGACGAAGGAGCCGCAAAGAAGATATTAAGGTATGAATAATCCCTCAATATAAATATCTCTCACTTATTTAAA,0.117,0.104,
ACAGACGAAGGAGCCGCAAAGAAGTTATTAAGGTATGAATAACCCCTCAATATAAATATCTCTCACTTATTTAAA,0.0618,0.0833,
ACAGACGAAGGAGCCGCAAACAAGTTATTAAGGGAAGAATAATCCCTCAATATAAATATCTCTCACTTATTTAAA,0.558,,
CGACATGTCCCGCTTCTTTCATTAATCCGTTAGCAACTGTTCTGCTATATACATTTACTTTTTAAGAGGAGGAAT,,,cleaved RNA product abundance [1]: 0.495
ACAGACGAAGGAGCCGCAAAGAAGTTATTAAGGGATGACTAATCCATCAATATAAATATCTCTCACTTATTTAAA,0.154,0.112,
CGACATGTCCCGCTTCTTTCATTAATCCGTTCGCAACTGTTTTGTTATATACATTTACCTTTTAAGAGGAGGAAT,,,cleaved RNA product abundance [1]: 0.411
ACAGACGAAGGAGCCGCAAAGAAGTTATGAAGGGATGAATAATCCCTCAATATAGATATCTCTCACTTATTTAAA,0.446,,
ACAGACGAAGGAGCCGCAAAGAAGTTTTTAAGGGAAGAATAATCCCTCAATATAAATATCTCTCACTTATTTAAA,0.149,0.128,
ACAGACGAAGGAGCCGCAAAGATGTTATTAAGGGATGAATAATCCTTCAATATAAATATCTCTCACTTATTTAAA,0.613,0.366,
